Laboratory results published in patent US20020188037A1, “Method and system for providing bioactive agent release coating” (priority 1999, published 2002).

Test: Bioactive Agent Release Assay, dextran-TRITC under polymer topcoat on discs (Example 4)
Type: physicochemical
Details: pEVA/pBMA topcoat coated at 48% relative humidity compared with 10% relative humidity; PBS, 37° C.; FIG. 2
Description: Two solutions were prepared in order to provide a coating composition in the form of a two part system. The first solution was an aqueous solution containing the bioactive agent, dextran-TRITC, at a concentration of 15 mg/ml. […] The poly(n-butyl methacrylate) and poly(ethylene-co-vinylacetate) were purified by extraction with organic solvents to remove impurities, e.g., monomer residues. The polymers of the second solution were dissolved in tetrahydrofuran at a concentration of 10 mg/ml.
Fifteen-millimeter diameter stainless steel discs with an overall thickness of two millimeters were fabricated with a nine-millimeter diameter flat pedestal. […] A surface treatment such as Parylene could be applied to the disc or the surface could be left untreated. The discs were weighed on a microbalance. The aqueous bioactive agent solution was applied to the pedestal surface of the discs with a pipette. The water evaporated from the discs and the discs were re-weighed on a microbalance to obtain the amount of the bioactive agent on the disc. The polymer coating solution containing poly(ethylene-co-vinylacetate) and poly(n-butyl methacrylate) was applied to the entire surface of the disc, covering the dextran. […]
Except as otherwise provided herein, each coated disc was placed in an amber vial with 4 mls of PBS. […] The concentration of bioactive agent in each PBS sample was determined using UV spectroscopy. […]

tetramethylrhodamine isothiocyanate-Dextran [dextran-TRITC]
release rate of the bioactive agent from the composite coating: faster rate
